According to article PMC8201801 (Proceedings of the National Academy of Sciences of the …, 2021):

Target: T1, Canine parvovirus (CPV) capsid (Canine parvovirus type 2 (CPV-2), …)
T1 chain: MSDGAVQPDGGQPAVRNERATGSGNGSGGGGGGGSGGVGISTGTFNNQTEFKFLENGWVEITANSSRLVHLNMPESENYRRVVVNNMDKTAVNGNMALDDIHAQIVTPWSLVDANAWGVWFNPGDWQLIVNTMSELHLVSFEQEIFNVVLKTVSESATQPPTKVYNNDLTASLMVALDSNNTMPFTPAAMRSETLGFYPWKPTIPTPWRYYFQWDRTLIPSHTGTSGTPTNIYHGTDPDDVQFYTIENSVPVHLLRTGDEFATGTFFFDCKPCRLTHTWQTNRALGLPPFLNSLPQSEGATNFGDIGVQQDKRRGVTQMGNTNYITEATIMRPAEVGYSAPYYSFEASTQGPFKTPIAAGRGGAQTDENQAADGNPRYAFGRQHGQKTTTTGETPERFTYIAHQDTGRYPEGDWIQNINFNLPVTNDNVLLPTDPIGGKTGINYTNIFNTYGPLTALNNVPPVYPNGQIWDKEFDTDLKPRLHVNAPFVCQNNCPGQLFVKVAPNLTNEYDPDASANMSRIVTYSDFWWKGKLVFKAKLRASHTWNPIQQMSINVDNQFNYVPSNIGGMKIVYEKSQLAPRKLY
Test: cryo-EM structure

B1: Fab of MAb 14 (Fab 14) (Fab, V domains shown)
VH: AVHLQGTELVKPGASAGVKLSCKASGYTFTNYDMNWVRQRPEQGLEWIGWIFPGDGSTRYNEKFKGKATLTTDKSSSTAYQLNRLTSEDSAVYFCARRGSHGSYSFAYWGQGTLVTVSG
VL: DIVMTQSHKFMSTSVGDRVSITCKASQDVNTALAWYQQIPGQSPKLLIYSASNRYTGVPDRFTASGSGTDFTFTISSVQAEDLALYYCQQHYTTPWTFGGGTKLEIK
stoichiometry N: ~60 Fab per capsid
